Results: the nanobody polyreactivity screen of Harvey et al. (2022)

Experiment: yeast display, Sf9 membrane polyspecificity reagent, FACS + sequencing; frameworks hold sequencing errors
Procedure, shortened: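 Nanobodies came from a synthetic yeast display library in Saccharomyces cerevisiae BJ5465, induced with galactose for 36–48 hours and stained for 1 hour at 4 °C with 10% biotinylated, detergent-solubilized Sf9 membrane reagent. Cells were enriched on streptavidin microbeads and then FACS-sorted, with low and high (top ~1%) gates set on anti-HA fluorescence for expression and streptavidin fluorescence for reagent binding. Each polyreactivity label reflects the gate a clone came from. Genes were amplified by colony PCR, sequenced by MiSeq 2 × 250 and filtered by CDR length.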

Sequence	polyreactivity (PSR sort gate)
QVQLVESGGGLVQAGGSLRVSCAASGRTFKYYARGWYRQAPGKARELVAAISGSGGSTYYADSVKGRFTISRDNAKNTVYLQMNSLKPEDTAVYYCAAAGKETSRNAYDSWGQGTQETVSS	high polyreactivity
QVQLVESGGGLVQAGGSLRVSCAASGRTFRGYSMGWSRPAPGKERELVAAISWRGGTTYYADSVKGRFTISRDNAKNTVYLQMNSLKPEDTAVYYCAARRYRISKTSGYWGQGTQVTVSS	high polyreactivity
QVQLVESGGGLVQAGGSLRVSCAASGRTFRYYEMGWYRQAPGKERELVAAISWSGGSTYYADSVKGRFTISRDNAKNSVYLQMNSLKPEDTAVYYCGAPKPIYSYPTYYYWGQGTQVTVSS	high polyreactivity
QVQLVESGGGLVQAGGSLRVSCAASGRTFYFNAMGWYRQAPGKERELVAVISWSGGRTYYADSVKGRFTISRDNAKNTVYLLMNSLKPEDTAVYYCAADYQSGGSRYDYWGQGTQVTVSS	high polyreactivity
QVQLVESGGGLVQAGGSLRVSCAASGSIFCPYTMGWNRQAPGKERELVAAITRSGGSTYYADSVKGRFTISRDNGKNTVYLQMNSLKPEDTAVFYCAARGQAYSGDRMYYWGQGTQVTVSS	high polyreactivity
QVQLVESGGGLVQAGGSLRVSCAASGSTIITNAMGWYRQATGKERELVAAITYSTGATYYADSVKGRFTISRDNAKNTVYLQMNSQKPEDTACYYCAALLYFFMIDYWGQGTQETVSS	low polyreactivity
QVQLVESGGGLVQAGGSLRVSCAASGTIFRRYAMGWYRQAPGKERELVATISSCTTTNYADSVKGRFTISRDNAKNTVYLQMNSLKPEDTAVYYCAADDYYEFYWGQGTQVTVSS	high polyreactivity
QVQLVESGGGLVQAGGSLRVSCASSGRTFSRNAMGWYRQAPGKEMELVATISRRGGSTNYADSVKGRFTISRDNAKNTVYLQMNSMKQEDTAVYYCAAGYRVRDDKVYGIVGPMDYWGQGTQVNVSS	high polyreactivity
QVQLVESGGGLVQAGGSLRVSFAASGLTFFQYGMGWYRQAPGKERELVASITRSRGRTNYADSVKGRFTISRDNAKYTVYLQMNSLKPEDTAVYYCAAYYYGSSAYGYGYNYWGQGTQVTVSS	high polyreactivity
QVQLVESGGGLVQAGGSLRVTCAASGNIFGYYAMGWYRQAPGKERELDAAISSGGTTSYADSVKGRFTISRDNAKNTVYLQLNSLKPEDTAVYYCAARDWYDGFYYWGQGTQVTVSS	low polyreactivity
QVQLVESGGGLVQAGGSLRYSCAASGSTSAWYAMGWYRQAPGKERELVAAITESGGDTYYADSVKGRFTISRDNAKNTVYLQMNSLKPEDTAVYYCNARGSARKSVPYPLEYWGQGTQVTVSS	high polyreactivity
QVQLVESGGGLVQAGGSLSISCAASGLSFSVNAMGWYRPAPGKEREFVAAISSSGGRTYYADSVKGRFTISRDHAKNTVYLQMNSLKPEYTAGYYCATAQGSRVDYWGQGTQVTLSS	high polyreactivity
QVQLVESGGGLVQAGGSLSLICAASGFIYYTMGWYRQAPGKEWELVAAISRSGGSTYYADSVKGRFTISRDNAKNTVYLQMNSLKPEDTAVYYCAARRPYRDGYDYWGQGTQVTVSS	high polyreactivity
QVQLVESGGGLVQAGGSLSLICAASGSTFSQYFMGLYRQAPGKDRELVAGISSRGTSTYYADSVKGRFTISRDNAQNTFYLQMNSLKPEDTAVFYCNRGKLYNTYDYWGQGTQVNVSS	low polyreactivity
QVQLVESGGGLVQAGGSLSLICAASGSTILYNTMGWYRQAPGKERELVATITSRGDRTYYADSVKGRFTISRDNAKNTVYLQMNSLKPDDTAVYYCNAYGGNYPQSYRYYYWGQGTQVTVSS	low polyreactivity
QVQLVESGGGLVQAGGSLSLICAAYGSTLGVYAMGWYIQAPGKERELVAAISSGGSTTYADSVKGRFTISRDNAKNTVYLQMNSLKPEDTAVYYCAADRYEGYVTWYWWGAYNYDYWGQGTQVTVSS	high polyreactivity
QVQLVESGGGLVQAGGSLSLICADSGSSFYGYAMGWYRQAPGKERELVAAITSSGGSTYYADSVKGRFTISRDNAKNTVYLQMNSLKPEDTAVYYCAARGSLGGWGLRYYWGQGTQVTVSS	high polyreactivity
QVQLVESGGGLVQAGGSLSLMCAASGRTLRSYAMGWYRQAPGKEMEFVASISRSGGSTYYADSVKGRFTISRDNAKNTVYLQMNSLKPEDTAVYYCAAGVRYPYRYYYWGQGTQVTVSS	high polyreactivity
QVQLVESGGGLVQAGGSLSLRCASYGSISFINAMGWYRQAPGKEMELVARITWSGGTTYYADSVKGRFTISRDNAKNTVYLQMNSLKPEDTAVYYCAAYIWAPLEGYEYDYWGQGTQVTVSS	high polyreactivity
QVQLVESGGGLVQAGGSLSLSCAASGFIFHYYAMAGYRQAPGKERELVAAISKTVGSTYYADSVKGRFTISRDNAKNTVYLQMNSRKPEDTAVYYCAVGYSRRNTPYDYWGQGTQVTVSS	high polyreactivity
QVQLVESGGGLVQAGGSLSLSCAASGFIFNHYAMRWYRQAPGTETEFVAAISLSGGSTYYAVSVKGRFTISRDNAKKTVYLQRNSLKPEDTAVYYCAASYNGLWHGDYDYWGHGTQVTVSS	low polyreactivity
